± gives the standard deviation of the averaged measurements.
Test: total protein half-life in vivo (active degradation + dilution); higher = more stable protein
[1] = E. coli NCM3722 delta-clpP delta-lon delta-hslV, growth: N-lim chemostat, doubling time 6 h
[2] = E. coli NCM3722 delta-clpP, growth: N-lim chemostat, doubling time 6 h
[3] = E. coli NCM3722 delta-hslV, growth: N-lim chemostat, doubling time 6 h
[4] = E. coli NCM3722 delta-lon, growth: N-lim chemostat, doubling time 6 h
[5] = E. coli NCM3722 delta-smpB, growth: N-lim chemostat, doubling time 6 h
[6] = wild type E. coli NCM3722, growth: C-lim chemostat, doubling time 3 h
[7] = wild type E. coli NCM3722, growth: C-lim chemostat, doubling time 6 h
[8] = wild type E. coli NCM3722, growth: C-lim chemostat, doubling time 12 h
[9] = wild type E. coli NCM3722, growth: N-lim chemostat, doubling time 6 h
[10] = wild type E. coli NCM3722, growth: N-lim chemostat, doubling time 12 h
[11] = wild type E. coli NCM3722, growth: P-lim chemostat, doubling time 6 h
[12] = wild type E. coli NCM3722, growth: P-lim chemostat, doubling time 12 h

Row | Sequence | total protein half-life in vivo [1] [h] | total protein half-life in vivo [2] [h] | total protein half-life in vivo [3] [h] | total protein half-life in vivo [4] [h] | total protein half-life in vivo [5] [h] | total protein half-life in vivo [6] [h] | total protein half-life in vivo [7] [h] | total protein half-life in vivo [8] [h] | total protein half-life in vivo [9] [h] | total protein half-life in vivo [10] [h] | total protein half-life in vivo [11] [h] | total protein half-life in vivo [12] [h]
1 | MANSSSRYSVLTAAHWGPMLVETDGETVFSSRGALATGMENSLQSAVRDQVHSNTRVRFPMVRKGFLASPENPQGIRGQDEFVRVSWDEALDLIHQQHKRIREAYGPASIFAGSYGWRSNGVLHKASTLLQRYMALAGGYTGHLGDYSTGAAQAIMPYVVGGSEVYQQQTSWPLVLEHSDVVVLWSANPLNTLKIAWNASDEQGLSYFSALRDSGKKLICIDPMRSETVDFFGDKMEWVAPHMGTDVALMLGIAHTLVENGWHDEAFLARCTTGYAVFASYLLGESDGIAKTAEWAAEICGVGAAKIRELAAIFHQNTTMLMAGWGMQRQQFGEQKHWMIVTLAAMLGQIGTPGGGFGLSYHFANGGNPTRRSAVLSSMQGSLPGGCDAVDKIPVARIVEALENPGGAYQHNGMNRHFPDIRFIWWAGGANFTHHQDTNRLIRAWQKPELVVISECFWTAAAKHADIVLPATTSFERNDLTMTGDYSNQHLVPMKQVVPPRYEARNDFDVFAELSERWEKGGYARFTEGKSELQWLETFYNVARQRGASQQVELPPFAEFWQANQLIEMPENPDSERFIRFADFCRDPLAHPLKTASGKIEIFSQRIADYGYPDCPGHPMWLEPDEWQGNAEPEQLQVLSAHPAHRLHSQLNYSSLRELYAVANREPVTIHPDDAQERGIQDGDTVRLWNARGQILAGAVISEGIKPGVICIHEGAWPDLDLTADGICKNGAVNVLTKDLPSSRLGNGCAGNTALAWLEKYNGPELTLTAFEPPASS | 4.73 ± 0.25 | 3.43 ± 0.21 | 3.62 ± 0.17 | 4.25 ± 0.41 | 3.293 ± 0.026 | 2.4 ± 0.26 | 4.57 ± 0.6 | 7.73 ± 0.2 | 3.56 ± 0.24 | 5.57 ± 0.67 | 3.55 ± 0.4 | 6.319 ± 0.0081
2 | MANYFIDRPVFAWVLAIIMMLAGGLAIMNLPVAQYPQIAPPTITVSATYPGADAQTVEDSVTQVIEQNMNGLDGLMYMSSTSDAAGNASITLTFETGTSPDIAQVQVQNKLQLAMPSLPEAVQQQGISVDKSSSNILMVAAFISDNGSLNQYDIADYVASNIKDPLSRTAGVGSVQLFGSEYAMRIWLDPQKLNKYNLVPSDVISQIKVQNNQISGGQLGGMPQAADQQLNASIIVQTRLQTPEEFGKILLKVQQDGSQVLLRDVARVELGAEDYSTVARYNGKPAAGIAIKLAAGANALDTSRAVKEELNRLSAYFPASLKTVYPYDTTPFIEISIQEVFKTLVEAIILVFLVMYLFLQNFRATIIPTIAVPVVILGTFAILSAVGFTINTLTMFGMVLAIGLLVDDAIVVVENVERVIAEDKLPPKEATHKSMGQIQRALVGIAVVLSAVFMPMAFMSGATGEIYRQFSITLISSMLLSVFVAMSLTPALCATILKAAPEGGHKPNALFARFNTLFEKSTQHYTDSTRSLLRCTGRYMVVYLLICAGMAVLFLRTPTSFLPEEDQGVFMTTAQLPSGATMVNTTKVLQQVTDYYLTKEKDNVQSVFTVGGFGFSGQGQNNGLAFISLKPWSERVGEENSVTAIIQRAMIALSSINKAVVFPFNLPAVAELGTASGFDMELLDNGNLGHEKLTQARNELLSLAAQSPNQVTGVRPNGLEDTPMFKVNVNAAKAEAMGVALSDINQTISTAFGSSYVNDFLNQGRVKKVYVQAGTPFRMLPDNINQWYVRNASGTMAPLSAYSSTEWTYGSPRLERYNGIPSMEILGEAAAGKSTGDAMKFMADLVAKLPAGVGYSWTGLSYQEALSSNQAPALYAISLVVVFLALAALYESWSIPFSVMLVVPLGVVGALLATDLRGLSNDVYFQVGLLTTIGLSAKNAILIVEFAVEMMQKEGKTPIEAIIEAARMRLRPILMTSLAFILGVLPLVISHGAGSGAQNAVGTGVMGGMFAATVLAIYFVPVFFVVVEHLFARFKKA | 6.822 ± 0.011 |  | 5.41 ± 0.53 | 5.03 ± 0.059 |  |  |  |  | 5.55 | 12.5 ± 3.7 | 5.7 ± 0.79 | 12.5 ± 1.6
3 | MANYFNTLNLRQQLAQLGKCRFMGRDEFADGASYLQGKKVVIVGCGAQGLNQGLNMRDSGLDISYALRKEAIAEKRASWRKATENGFKVGTYEELIPQADLVINLTPDKQHSDVVRTVQPLMKDGAALGYSHGFNIVEVGEQIRKDITVVMVAPKCPGTEVREEYKRGFGVPTLIAVHPENDPKGEGMAIAKAWAAATGGHRAGVLESSFVAEVKSDLMGEQTILCGMLQAGSLLCFDKLVEEGTDPAYAEKLIQFGWETITEALKQGGITLMMDRLSNPAKLRAYALSEQLKEIMAPLFQKHMDDIISGEFSSGMMADWANDDKKLLTWREETGKTAFETAPQYEGKIGEQEYFDKGVLMIAMVKAGVELAFETMVDSGIIEESAYYESLHELPLIANTIARKRLYEMNVVISDTAEYGNYLFSYACVPLLKPFMAELQPGDLGKAIPEGAVDNGQLRDVNEAIRSHAIEQVGKKLRGYMTDMKRIAVAG | 3.97 ± 0.51 | 3.59 ± 0.64 | 3.31 ± 0.22 | 3.72 ± 0.042 | 3.46 ± 0.06 | 3.035 ± 0.013 | 5.6 ± 0.11 | 10.3 ± 0.33 | 3.472 ± 0.017 | 5.36 ± 0.15 | 5.67 ± 0.26 | 11.9 ± 0.2
4 | MAQIFNFSSGPAMLPAEVLKQAQQELRDWNGLGTSVMEVSHRGKEFIQVAEEAEKDFRDLLNVPSNYKVLFCHGGGRGQFAAVPLNILGDKTTADYVDAGYWAASAIKEAKKYCTPNVFDAKVTVDGLRAVKPMREWQLSDNAAYMHYCPNETIDGIAIDETPDFGADVVVAADFSSTILSRPIDVSRYGVIYAGAQKNIGPAGLTIVIVREDLLGKANIACPSILDYSILNDNGSMFNTPPTFAWYLSGLVFKWLKANGGVAEMDKINQQKAELLYGVIDNSDFYRNDVAKANRSRMNVPFQLADSALDKLFLEESFAAGLHALKGHRVVGGMRASIYNAMPLEGVKALTDFMVEFERRHG | 5.23 ± 1.6 | 3.87 ± 0.14 | 3.6976 ± 0.003 | 4.479 ± 0.022 | 3.55 ± 0.13 | 3.13 ± 0.2 | 5.71 ± 0.44 | 11.1 ± 2.7 | 3.83 ± 0.23 | 5.898 ± 0.048 | 5.74 ± 0.69 | 11.8 ± 0.42
5 | MAQLKFNSILVVCTGNICRSPIGERLLRKRLPGVKVKSAGVHGLVKHPADATAADVAANHGVSLEGHAGRKLTAEMARNYDLILAMESEHIAQVTAIAPEVRGKTMLFGQWLEQKEIPDPYRKSQDAFEHVYGMLERASQEWAKRLSR [P0ACZ2] | 4.76 ± 0.95 |  |  |  |  |  |  |  |  |  | 2.72 | 
6 | MAQPAAIIRIKNLRLRTFIGIKEEEINNRQDIVINVTIHYPADKARTSEDINDALNYRTVTKNIIQHVENNRFSLLEKLTQDVLDIAREHHWVTYAEVEIDKLHALRYADSVSMTLSWQR [P0AC19] | 4.1 ± 0.57 | 2.73 ± 0.7 | 2.79 ± 0.23 | 3.5 ± 0.081 | 2.93 ± 0.14 |  | 4.77 ± 0.2 | 10 ± 4 | 2.58 ± 0.23 | 3.989 ± 0.015 | 5.16 ± 0.45 | 11.5 ± 0.42

From the supplement of paper PMC11246515
